{
  "source": "the supplement of paper PMC10567573",
  "parents": {"B1": {"name": "INTS3 (parent)", "chain": "DLNSKGKKREFRFHPIKETVVEEP"}},
  "data": [
    {"variants_of": "B1", "assay": "protein stability index of a GFP-peptide fusion (GPS, HEK-293T) (PSI 1-6); higher = more stable", "details": "c terminus: a fixed tail appended", "values": [
      {"variant": "P15N", "protein stability index": 3.65},
      {"variant": "P15C", "protein stability index": 2.54},
      {"variant": "P15I", "protein stability index": 2.65},
      {"variant": "P15A", "protein stability index": 2.96},
      {"variant": "P15G", "protein stability index": 3.15},
      {"variant": "P15L", "protein stability index": 2.82},
      {"variant": "P15D", "protein stability index": 3.57},
      {"variant": "P15Q", "protein stability index": 2.6},
      {"variant": "P15H", "protein stability index": 3.09},
      {"variant": "P15F", "protein stability index": 2.44},
      {"variant": "P15E", "protein stability index": 3.2},
      {"variant": "P15K", "protein stability index": 3.18},
      {"variant": "P15M", "protein stability index": 2.29},
      {"variant": "K8G", "protein stability index": 2.08},
      {"variant": "K8P", "protein stability index": 1.94},
      {"variant": "K8W", "protein stability index": 2.27},
      {"variant": "K8F", "protein stability index": 2.09},
      {"variant": "K8S", "protein stability index": 2.23},
      {"variant": "K8V", "protein stability index": 1.73},
      {"variant": "K8M", "protein stability index": 1.93},
      {"variant": "K8E", "protein stability index": 2.93},
      {"variant": "K8C", "protein stability index": 1.98},
      {"variant": "K8D", "protein stability index": 3.35},
      {"variant": "K8N", "protein stability index": 2.54},
      {"variant": "K8Q", "protein stability index": 2.77},
      {"variant": "K8L", "protein stability index": 1.96},
      {"variant": "K8R", "protein stability index": 1.52},
      {"variant": "K8I", "protein stability index": 2.24},
      {"variant": "K8T", "protein stability index": 2.36},
      {"variant": "K8H", "protein stability index": 2},
      {"variant": "K8Y", "protein stability index": 2.27},
      {"variant": "K8A", "protein stability index": 1.74},
      {"variant": "R12K", "protein stability index": 4.11},
      {"variant": "R12D", "protein stability index": 4.25},
      {"variant": "R12M", "protein stability index": 4.12},
      {"variant": "R12G", "protein stability index": 4.24},
      {"variant": "R12V", "protein stability index": 3.55},
      {"variant": "R12E", "protein stability index": 4.03},
      {"variant": "R12C", "protein stability index": 3.99},
      {"variant": "R12F", "protein stability index": 3.13},
      {"variant": "R12I", "protein stability index": 3.79},
      {"variant": "R12N", "protein stability index": 3.74},
      {"variant": "R12S", "protein stability index": 4.04},
      {"variant": "R12T", "protein stability index": 4.28},
      {"variant": "R12A", "protein stability index": 4.15},
      {"variant": "R12P", "protein stability index": 4.07},
      {"variant": "R12L", "protein stability index": 3.57},
      {"variant": "R12H", "protein stability index": 4.2},
      {"variant": "R12Q", "protein stability index": 4},
      {"variant": "R12Y", "protein stability index": 4.12},
      {"variant": "R12W", "protein stability index": 3.02},
      {"variant": "K7S", "protein stability index": 2.48},
      {"variant": "K7G", "protein stability index": 2.28},
      {"variant": "K7P", "protein stability index": 1.94},
      {"variant": "K7W", "protein stability index": 2.58},
      {"variant": "K7T", "protein stability index": 2.79},
      {"variant": "K7Y", "protein stability index": 1.94},
      {"variant": "K7Q", "protein stability index": 2.54},
      {"variant": "K7C", "protein stability index": 1.86},
      {"variant": "K7V", "protein stability index": 2.54},
      {"variant": "K7A", "protein stability index": 2.57},
      {"variant": "K7H", "protein stability index": 2.35},
      {"variant": "K7D", "protein stability index": 3.35},
      {"variant": "K7I", "protein stability index": 2.15},
      {"variant": "K7E", "protein stability index": 3.37},
      {"variant": "K7R", "protein stability index": 2.37},
      {"variant": "K7N", "protein stability index": 2.23},
      {"variant": "K7M", "protein stability index": 2.25},
      {"variant": "K7L", "protein stability index": 1.62},
      {"variant": "K7F", "protein stability index": 1.72},
      {"variant": "F11N", "protein stability index": 4.13},
      {"variant": "F11L", "protein stability index": 3.84},
      {"variant": "F11E", "protein stability index": 4.94},
      {"variant": "F11A", "protein stability index": 3.95},
      {"variant": "F11D", "protein stability index": 4.88},
      {"variant": "F11W", "protein stability index": 2.1},
      {"variant": "F11K", "protein stability index": 4.46},
      {"variant": "F11G", "protein stability index": 4.32},
      {"variant": "F11R", "protein stability index": 4.28},
      {"variant": "F11M", "protein stability index": 4.45},
      {"variant": "F11S", "protein stability index": 4.39},
      {"variant": "F11H", "protein stability index": 4.31},
      {"variant": "F11C", "protein stability index": 4.47},
      {"variant": "F11Q", "protein stability index": 4.11},
      {"variant": "F11P", "protein stability index": 4.39},
      {"variant": "F11I", "protein stability index": 3.55},
      {"variant": "F11V", "protein stability index": 4.02},
      {"variant": "F11Y", "protein stability index": 3.89},
      {"variant": "F11T", "protein stability index": 4.87},
      {"variant": "R9H", "protein stability index": 1.79},
      {"variant": "R9V", "protein stability index": 2.37},
      {"variant": "R9S", "protein stability index": 2.53},
      {"variant": "R9T", "protein stability index": 2.56},
      {"variant": "R9Y", "protein stability index": 2.31},
      {"variant": "R9K", "protein stability index": 3.07},
      {"variant": "R9G", "protein stability index": 2.41},
      {"variant": "R9N", "protein stability index": 2.49},
      {"variant": "R9A", "protein stability index": 2.87},
      {"variant": "R9I", "protein stability index": 2.35},
      {"variant": "R9L", "protein stability index": 1.78},
      {"variant": "R9P", "protein stability index": 2.34},
      {"variant": "R9Q", "protein stability index": 2.83},
      {"variant": "R9M", "protein stability index": 1.78},
      {"variant": "R9C", "protein stability index": 2.31},
      {"variant": "R9D", "protein stability index": 4.09},
      {"variant": "R9W", "protein stability index": 2.21},
      {"variant": "R9E", "protein stability index": 3.73},
      {"variant": "R9F", "protein stability index": 1.65},
      {"variant": "G6W", "protein stability index": 2.12},
      {"variant": "G6Y", "protein stability index": 1.95},
      {"variant": "H14G", "protein stability index": 4.02},
      {"variant": "H14C", "protein stability index": 3.36},
      {"variant": "H14L", "protein stability index": 4.01},
      {"variant": "H14K", "protein stability index": 3.91},
      {"variant": "H14D", "protein stability index": 4.59},
      {"variant": "H14Y", "protein stability index": 3.74},
      {"variant": "H14N", "protein stability index": 3.84},
      {"variant": "H14E", "protein stability index": 4.13},
      {"variant": "H14V", "protein stability index": 2.73},
      {"variant": "H14M", "protein stability index": 3.53},
      {"variant": "H14I", "protein stability index": 3.57},
      {"variant": "H14Q", "protein stability index": 3.78},
      {"variant": "H14W", "protein stability index": 3.44},
      {"variant": "H14S", "protein stability index": 3.89},
      {"variant": "H14F", "protein stability index": 3.34},
      {"variant": "H14T", "protein stability index": 3.7},
      {"variant": "H14A", "protein stability index": 3.83},
      {"variant": "H14P", "protein stability index": 4.35},
      {"variant": "H14R", "protein stability index": 3.88},
      {"variant": "E10Y", "protein stability index": 1.49},
      {"variant": "E10P", "protein stability index": 2.55},
      {"variant": "E10T", "protein stability index": 1.99},
      {"variant": "E10S", "protein stability index": 1.65},
      {"variant": "E10C", "protein stability index": 2.97},
      {"variant": "E10D", "protein stability index": 2.7},
      {"variant": "E10L", "protein stability index": 1.94},
      {"variant": "E10K", "protein stability index": 2.88},
      {"variant": "E10Q", "protein stability index": 1.87},
      {"variant": "E10W", "protein stability index": 2.1},
      {"variant": "E10N", "protein stability index": 2.58},
      {"variant": "E10M", "protein stability index": 1.64},
      {"variant": "E10G", "protein stability index": 2},
      {"variant": "E10H", "protein stability index": 2.72},
      {"variant": "E10R", "protein stability index": 1.96},
      {"variant": "E10A", "protein stability index": 3.19},
      {"variant": "E10I", "protein stability index": 1.78},
      {"variant": "E10V", "protein stability index": 1.3},
      {"variant": "E10F", "protein stability index": 1.76},
      {"variant": "F13L", "protein stability index": 4.78},
      {"variant": "F13E", "protein stability index": 4.75},
      {"variant": "F13Y", "protein stability index": 2.47},
      {"variant": "F13I", "protein stability index": 3.78},
      {"variant": "F13C", "protein stability index": 3.94},
      {"variant": "F13D", "protein stability index": 4.71},
      {"variant": "F13A", "protein stability index": 4.44},
      {"variant": "F13Q", "protein stability index": 4.5},
      {"variant": "F13R", "protein stability index": 3.99},
      {"variant": "F13S", "protein stability index": 4.27},
      {"variant": "F13T", "protein stability index": 4.02},
      {"variant": "F13H", "protein stability index": 3.75},
      {"variant": "F13M", "protein stability index": 4.25},
      {"variant": "F13G", "protein stability index": 4.31},
      {"variant": "F13P", "protein stability index": 4.48},
      {"variant": "F13V", "protein stability index": 4.47},
      {"variant": "F13W", "protein stability index": 3.72},
      {"variant": "F13K", "protein stability index": 4.06},
      {"variant": "F13N", "protein stability index": 4.65}
    ]}
  ]
}
